Reference: patent US20240043507A1 (RQ BIOTECHNOLOGY, published 2024)
Where a chain is given by its changes, count along the chain named.

B1: mAb 45 (antibody, V domains shown)
VH: QVQLVESGGGVVQPGRSLRLSCAASGFTFSTYAMHWVRQAPGKGLEWVAVLSYDGSNKYYADSVKGRFTISRDNSKNTLYLQMNSLRAEDTAVYYCAKGGSYAYYYYMDVWGKGTTVTVSS
VL: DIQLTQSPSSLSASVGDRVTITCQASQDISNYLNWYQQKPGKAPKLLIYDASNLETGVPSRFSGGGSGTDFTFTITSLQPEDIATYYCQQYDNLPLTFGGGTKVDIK
notes: also called antibody 45
B2: Fab of antibody 88 (Fab, V domains shown)
VH: QLQLQESGPGLVKPSQTLSLTCTVSGGSISSGSYNWTWIRQPAGKGLEWIGRIYNSGSTNYNPSLKSRVTISVDTSKNQLSLKVRSVTAADTAVYYCARHCSGGTCYPKYYYGMDVWGQGTTVTVSS
VL: QSALTQPPSVSEAPRQRVTISCSGSSSNIGNNAVNWYQQFPGKAPKLLIYYDDLLPSGVSDRFSGSKSGTSASLAISGVQSEDEADYYCAAWDDSLNVVVFGGGTKLTVL
notes: also called 88 Fab; Fab 88
B3: Fab of chimeric antibody 253H165L (Fab, V domains shown)
VH: not shown
VL: DIVMTQSPGTLSLSPGERATLSCRASQSVRSSYLAWYQQKPGQAPRLLIYGASRRGTGIPDRFSGSGSGTDFTLTISRLEPEDFAVYYCQQYGSSPWTFGQGTKVEIK
notes: also called 253H165L Fab
B4: chimeric antibody 253H165L, full-length IgG (antibody, V domains shown)
VH: not shown
VL: B3 VL
notes: also called 253H165L IgG
B5: Fab of antibody 158 (Fab, V domains shown)
VH: EVQLLESGGDLIQPGGSLRLSCAASGVTVSSNYMSWVRQAPGKGLEWVSIIYPGGSTFYADSVKGRFTISRDNSKNTLYLQMHSLRAEDTAVYYCARDLGSGDMDVWGKGTTVTVSS
VL: DIVMTQSPSFLSASVGDRVTITCRASQGISSYLAWYQQKPGKAPKLLIQAASTLQSGVPSRFSGSGSGTEFTLTISSLQPEDFATYYCQQLNSYRYTFGQGTKVEIK
notes: also called 158 Fab; Fab 158
B6: Fab of antibody 40 (Fab, V domains shown)
VH: QVQLVESGGGLVQPGGSLRLSCAVSGFTVSRNYMSWVRQAPGKGLEWVSLIYSGGSTFYADSVKGRFTISRDNSKNTLYLQMNSLRAEDTAVYYCARDLFHRSGYHDYWGQGTLVTVSS
VL: not shown
notes: also called 40 Fab; Fab 40
B7: Fab of antibody 316 (Fab, V domains shown)
VH: not shown
VL: QAVLTQPPSASGSPGQSVTISCTGTSSDVGGYNYVSWYQQHPGKAPKLMIYEVSKRPSGVPDRFSGSKSGNTASLTVSGLQAEDEADYYCSSYAGSNHWVFGGGTKLTVL
notes: also called 316 Fab; Fab 316
B8: antibody 318 (antibody, V domains shown)
VH: QVQLVQSGPEVKKPGTSVKVSCKASGFTLTSSAMQWVRQARGQRLEWIGWIVVGSGNTNYAQKFQERVTITRDMSTSTAYMELSSLRSEDTAVYYCAAGRGYNSDFDYWGQGTLVTVSS
VL: AIRMTQSPGTLSLSPGERATLSCRASQSVSSSYLAWYQQRPGQAPRLLIYGTSSRATGIPDRFSGSGSGTDFTLTISRLEPEDFAVYYCQQYGYSVYTFGQGTKVDIK
notes: also called mAb 318
B9: antibody 398 (antibody, V domains shown)
VH: QVQLVESGGGLVQPGGSLRLSCAASGFTVSSNYMTWVRQAPGKGLEWVSVIYSGGSTYYADSVKGRFTISRDNSKNTLYLQMNSLRADDTAVYYCARDSTADYDFWSGYYVGAFHIWGQGTMVTVSS
VL: B7 VL with A2T, P8A, A10V, V18I, S54T, H98N
notes: also called mAb 398
B10: Fab of antibody 159 (Fab, V domains shown)
VH: EVQLVESGGGVVQPGRSLRLSCAASGFTFSSYGMHWVRQAPGKGLEWVALISYDGGNRYYADSVKGRFTISRDNSKNTLYLQMNRLRAEDTAMYYCAKDRDDGWDWYYFMDVWGKGTTVTVSS
VL: DIQLTQSPGTLSLSPGERATLSCRASQSISGNYLAWYQHKPGQAPRLLIYGASTRATGIPDRFSGSGSGTDFTLTISRLEPEDFAVYYCQQYGSSYTFGQGTKVEIK
B11: Fab of antibody 318 (Fab, V domains shown)
VH: B8 VH
VL: B8 VL
B12: Fab of antibody 222 (Fab, V domains shown)
VH: EVQLVESGGGLIQPGGSLRLSCAASGLTVSSNYMSWVRQAPGKGLEWVSVIYSGGSTFYADSVKGRFTISRDNSKNTLYLQMNSLGAEDTAVYYCARGEGSPGNWFDPWGQGTLVTVSS
VL: DVVMTQSPGTLSLSPGERATLSCRASQSVPSSYLAWYQQKPGQAPRLLIYGASTRATGIPDRFSGSGSGTDFTLTISRLEPEDFAVYYCQHYDTSPRFGGGTKVDIK
B13: Fab of antibody 58 (Fab, V domains shown)
VH: QVQLVESGGGLVQPGRSLRLSCAASGFTFDDYAMHWVRQPPGKGLEWVSGVSWNSGTIGYADSVKGRFIISRDNAKNSLYLQMNSLKAEDTALYYCAREVGGTFGVLISREGGLDYWGQGTLVTVSS
VL: SYELTQPPSVSVAPGQTARITCGGNTIGSKSVHWYQQRPGQAPVLVVYDDSDRPSGIPERFSGSNSGNTATLTISRVEAGDEADYYCQVWDSSSDRVVFGGGTKLTVL
B14: Fab of antibody 269 (Fab, V domains shown)
VH: QVQLVESGGGLIQPGGSLRLSCAASGLTVNRNYMSWIRQAPGKGLEWVSVIYSGGSTFYADSVKGRFTISRDNSKNTLSLQMNSLRAEDTAIYYCARDFYEGSFDIWGQGTMVTVSS
VL: AIQLTQSPSFLSASIGDRVTITCRASQGISSYLAWYQQKPGKAPKLLIYAASTLQSGVPSRFSGSGSGTEFTLTISSLQPEDFASYYCQQLNSYPAPVFGPGTKVDIK
notes: also called 269 Fab; COVOX-269
B15: Fab of antibody 398 (Fab, V domains shown)
VH: B9 VH
VL: B7 VL with A2T, P8A, A10V, V18I, S54T, H98N
B16: Fab of antibody 175 (Fab, V domains shown)
VH: EVQLVESGGGLIQPGGSLRLSCAASGLTVSRNYMSWVRQAPGKGLEWVSLIYSGGSTYYADSVKGRFTISRDNSKNTLYLQMNSLRAEDTAVYYCARDLRGEVWGQGTMVTVSS
VL: not shown
B17: Fab of antibody 281 (Fab, V domains shown)
VH: QVQLVESGGGLVQPGGSLRLSCAASGFPFSIYWMSWVRQAPGKGLEWVANIKQDGSEKYYVDSVKGRFTISRDNAKNSLYLHMNSLRGEDTAVYYCASRYYDFRPEAWFDYWGQGTLVTVSS
VL: not shown

Molecular target: SARS-CoV-2 spike on whole virus (SARS-CoV-2/human/AUS/VIC01/2020, Victoria) (SARS-CoV-2, UniProt P0DTC2 14-1273)
Experiment: cell-based or functional assay

Row | Binder | Neutralisation IC50 (FRNT) [mg/L]
1 | B1 | 2

Molecular target: T1, SARS-CoV-2 spike protein on authentic virus, strain SARS-CoV-2/human/AUS/VIC01/2020 (Victoria) (SARS-CoV-2, UniProt P0DTC2 14-1273)
Experiment: cell-based or functional assay

Row | Binder | Neutralisation IC50 [nM]
2 | B2 | 6.95
3 | B3 | 5.22
4 | B4 | 0.03
5 | B5 | 4.12
6 | B6 | 45.7
7 | B7 | 27.6

Molecular target: spike protein of SARS-CoV-2 strain Victoria (SARS-CoV-2/human/AUS/VIC01/2020) (SARS-CoV-2, UniProt P0DTC2 14-1273)
Experiment: cell-based or functional assay

Row | Binder | IC50 (FRNT neutralisation) [mg/L]
8 | B8 | 0.029
9 | B9 | 0.091

Molecular target: spike protein of SARS-CoV-2 strain B.1.1.7 (SARS-CoV-2, UniProt P0DTC2 14-1273)
Experiment: cell-based or functional assay

Row | Binder | IC50 (FRNT neutralisation) [mg/L]
10 | B8 | 0.185
11 | B9 | 0.18

Molecular target: spike protein of SARS-CoV-2 strain B.1.351 (SARS-CoV-2, UniProt P0DTC2 14-1273)
Experiment: cell-based or functional assay

Row | Binder | IC50 (FRNT neutralisation) [mg/L]
12 | B8 | 0.019
13 | B9 | > 10

Molecular target: spike protein of SARS-CoV-2 strain P.1 (SARS-CoV-2, UniProt P0DTC2 14-1273)
Experiment: cell-based or functional assay

Row | Binder | IC50 (FRNT neutralisation) [mg/L]
14 | B8 | 0.083
15 | B9 | > 10

Molecular target: T1, SARS-CoV-2 spike protein on authentic …
Experiment: whole-virus capture ELISA, half-maximal binding

Row | Binder | Kd [nM]
16 | B2 | 1.21
17 | B3 | 5.02
18 | B4 | 0.09
19 | B5 | 3.73
20 | B10 | 0.29
21 | B6 | 1.23
22 | B7 | 8.76

Molecular target: T2, SARS-CoV-2 receptor binding domain with N501Y (SARS-CoV-2, UniProt P0DTC2 330-532)
T2 construct: range 330-532; also called RBD-N501Y; RBD N501Y
Experiment: BLI, RBD immobilised on AR2G biosensor, 1:1 fit

Row | Binder | Kd [nM]
23 | B11 | 1.99
24 | B2 | 0.65
25 | B12 | 0.39
26 | B5 | 1.57
27 | B13 | 0.55
28 | B14 | 45.4
29 | B6 | 0.97
30 | B7 | 2.81
31 | B15 | 1.18
32 | B16 | 2.54
33 | B17 | 4.05

Molecular target: T1, SARS-CoV-2 spike protein on authentic …
Experiment: calculated from whole-virus ELISA binding and FRNT50

Row | Binder | % Occupancy [%]
34 | B2 | 85.2
35 | B3 | 51.3
36 | B4 | 24.5
37 | B5 | 52.7
38 | B6 | 97.4
39 | B7 | 74
